Measured values: publication PMC8836101 (2022)

Legend:
[1] = target: H3 22-41 (Homo sapiens, unmodified; biotin, attachment site not given); test: FACS; yeast surface display titration
[2] = target: H3K18me2 (Homo sapiens, dimethyl-Lys18 (mature numbering); biotin, attachment site not given; limits assumed from the H3 1-21 control); test: FACS; yeast surface display titration

Kd [1] [µM] | Kd [2] [µM] | Binder
6.5 | – | bromo-adjacent homology domain of ASH1L (domain or fragment) NFHSFNVEKQQLCKCGFEKCRGIIGGKSQRVNGLTSSKNSQPMATHKKSGRSKEKRKSKHKLKKRRGHLSEEPSENINTPTRLTPQLQMKPMSNRERNFVLKHHVFLVRNWEKIRQKQEEVKHTSDNIHSASLYTRWNGICRDDGNIKSDVFMTQFSALQTARSVRTRRLAAAEENIEVARAARLAQIFKEICDGIISYKDSSRQALAAPLLNLPPKKKNADYYEKISDPLDLITIEKQILTGYYKTVEAFDADMLKVFRNAEKYYGRKSPVGRDVCRLRKAYYNARHEASAQIDEIVGETASEADSSETSVSEKENGHEKDDDVIRCICGLYKDEGLMIQCDKCMVWQHCDCMGVNSDVEHYLCEQCDPRPVDREVPMIPRPHYAQPGCVYFICLLRDDLLLRQGDCVYLMRDSRRTPDGHPVRQSYRLLSHINRDKLDIFRIEKLWKNEKEERFAFGHHYFRPHETHHSPSRRFYHNELFRVPLYEIIPLEAVVGTCCVLDLYTYCKGRPKGVKEQDVYICDYRLDKSAHLFYKIH
– | 5 | tandem Tudor domains of UHRF1 (domain or fragment) WDETELGLYKVNEYVDARDTNMGAWFEAQVVRVTRKAPSRDEPCSSTSRPALEEDVIYHVKYDDYPENGVVQMNSRDVRARARTIIKWQDLEVGQVVMLNYNPDNPKERGFWYDAEISRKRETRTARELYANVVLGDDSLNDCRIIFVDEVFKIERPGE
